Experimental data taken from paper PMC11490872, “Drug-resistant menin variants retain high binding affinity and interactions with MLL1” (The Journal of Biological Chemistry, 2024).
Substitutions are numbered along the chain they refer to. Where two headings read alike, the source gives them in different places. Values belong to the molecule of their own block, whether it stands above or below them.

Legend:
[1] = system: menin T349M; design: method as in PMID 36922589; details: versus wild-type menin; cited from earlier work
[2] = system: menin M327I; design: method as in PMID 36922589; details: versus wild-type menin; cited from earlier work
[3] = target: T1, menin^M327I (Homo sapiens, UniProt O00255, M322I); experiment: ITC binding of MLL1 fragments to menin^M327I
T1 construct: The gene encoding full-length human menin was cloned into a pET32a expression vector; thioredoxin-His6 (cleaved yes); made in house; host or cells: E. coli BL21(DE3)
T1 sequence (O00255 1-610 M322I): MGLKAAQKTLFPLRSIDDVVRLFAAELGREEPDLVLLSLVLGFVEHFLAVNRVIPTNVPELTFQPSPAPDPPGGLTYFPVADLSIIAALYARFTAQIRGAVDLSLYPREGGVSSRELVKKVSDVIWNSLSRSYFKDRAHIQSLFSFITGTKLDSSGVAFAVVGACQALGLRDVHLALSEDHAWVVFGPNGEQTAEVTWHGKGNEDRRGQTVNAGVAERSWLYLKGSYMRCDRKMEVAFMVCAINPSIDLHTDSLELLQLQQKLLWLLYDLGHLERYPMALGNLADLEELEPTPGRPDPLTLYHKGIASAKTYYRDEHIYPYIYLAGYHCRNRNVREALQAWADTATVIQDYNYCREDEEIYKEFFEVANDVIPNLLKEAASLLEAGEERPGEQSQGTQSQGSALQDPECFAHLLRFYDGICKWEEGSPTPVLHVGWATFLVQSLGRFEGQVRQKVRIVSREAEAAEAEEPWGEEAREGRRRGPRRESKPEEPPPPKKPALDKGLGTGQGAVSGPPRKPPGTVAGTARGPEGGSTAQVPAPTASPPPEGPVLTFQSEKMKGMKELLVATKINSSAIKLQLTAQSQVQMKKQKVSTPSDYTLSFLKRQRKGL
Method: (§1) Menin and MLL1 fragments were dialyzed at 4 °C against a 50 mM sodium phosphate pH 7.5, 50 mM NaCl, 1 mM TCEP buffer, and degassed prior to measurement. The titrations were performed using the VP-ITC system (MicroCal) at 25 °C. The calorimetric cell, which contained menin (concentrations in the 5–10 μM range), was titrated with the MLL1^160 and MLL1^4-15 derived peptides (concentration range 40–100 μM) injected in 10-μL aliquots. Data was analyzed using Origin 7.0 (OriginLab) to obtain Kd, stoichiometry, entropy, and enthalpy ([2]). Experiments with WT, M327I, T349M, and G331R menin and MLL1^160 or MLL1^4-15 were run in duplicate. Experiments with G331D menin and MLL1^160 were run in duplicate while experiments with G331D and MLL1^4-15 were run in quadruplicate.

[4] = target: T2, menin^G331R (Homo sapiens, UniProt O00255, G326R); experiment: ITC binding of MLL1 fragments to menin^G331R
T2 construct: The gene encoding full-length human menin was cloned into a pET32a expression vector; thioredoxin-His6 (cleaved yes); made in house; host or cells: E. coli BL21(DE3)
T2 sequence (O00255 1-610 G326R): T1 sequence (O00255 1-610 M322I) with I322M, G326R
Method: as §1

[5] = target: T3, menin^WT (Homo sapiens, UniProt O00255); experiment: ITC binding of MLL1 fragments to menin^WT
T3 construct: Full-length human menin was expressed in BL21(DE3) cells; thioredoxin-His6 (cleaved yes); made in house; host or cells: E. coli BL21(DE3)
T3 sequence (O00255 1-610): T1 sequence (O00255 1-610 M322I) with I322M
Method: as §1

[6] = ITC, representative binding isotherm Fig. 1A, 25 °C, read-out: Kd

Molecule: CCN(C(=O)c1cc(F)ccc1Oc1cncnc1N1CC2(CCN(C[C@H]3CC[C@H](NS(=O)(=O)CC)CC3)CC2)C1)C(C)C [Revumenib, reference compound]
reduction of binding by T349M mutation [1]: 111 fold
reduction of binding by M327I mutation [2]: 51 fold

Kd ([3]; ITC summary Fig. 1B, values marked *, n = 2, read-out: M327I Kd (nM), ITC): 2.2 ± 0.6 nM
Kd [3, 6]: 2.2 ± 0.6 nM
Kd ([4]; ITC summary Fig. 1B, values marked *, n = 2, read-out: G331R Kd (nM), ITC): 1.3 ± 0.3 nM
Kd [4, 6]: 1.1 ± 0.3 nM
Kd ([5]; ITC summary Fig. 1B, values marked *, n = 2, read-out: WT Kd (nM), ITC): 0.5 ± 0.3 nM
Kd [5, 6]: 0.5 ± 0.2 nM
B1: MLL1^160: N-terminal 160 amino acids of human MLL1, Cys2 mutated to alanine, recombinant (protein)
chain: MAHSARWRFPARPGTTGGGGGGGRRGLGGAPRQRVPALLLPPGPPVGGGGPGAPPSPPAVAAAAAAAGSSGAGVPGGAAAASAASSSSASSSSSSSSSASSGPALLRVGPGFDAALQVSAAIGTNLRRFRAVFGESGGGGGSGEDEQFLGFGSDEEVRVR
modifications: The printed 'Cys2' is the single N-terminal cysteine, Cys5 in the entry (peptide S4-A5-R6); Trx-His6 tag cleaved
